In patent US20190330338A1 (UNIVERSITY OF UTAH RESEARCH FOUNDATION, published 2019) one finds binding result and Kd data, which are given here for three molecules.

Read-outs that look alike come from different tables or passages of the source.

Assay [1] has as its target T1, recombinant CD229 (human, UniProt Q9HBG7 48-454, limits assumed).
T1 construct: Labeled with allophycocyanin in the CAR flow cytometry assay; also called APC-labeled recombinant CD229; immobilized recombinant CD229
T1 sequence (looked up): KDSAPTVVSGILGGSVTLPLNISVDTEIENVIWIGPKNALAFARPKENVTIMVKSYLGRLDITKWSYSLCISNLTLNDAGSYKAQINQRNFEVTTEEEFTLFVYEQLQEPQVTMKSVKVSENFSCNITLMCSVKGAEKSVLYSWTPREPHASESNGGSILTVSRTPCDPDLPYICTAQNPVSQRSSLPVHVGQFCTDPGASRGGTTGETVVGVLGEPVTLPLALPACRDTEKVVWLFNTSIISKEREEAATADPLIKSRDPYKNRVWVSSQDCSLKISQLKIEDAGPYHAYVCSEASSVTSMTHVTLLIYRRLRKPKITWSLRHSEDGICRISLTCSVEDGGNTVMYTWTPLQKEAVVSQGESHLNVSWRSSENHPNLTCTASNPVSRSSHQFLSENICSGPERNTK
In words: flow cytometry of 293T cells expressing the CAR, stained with APC-labeled recombinant CD229. As to the method:
In the final CAR construct, the scFv can be joined directly to a 45 amino acid hinge domain, which can alter binding properties of the antibodies. […] 20 of the 23 unique scFv binders still recognized CD229 with the new C-terminal fusion partner. All 23 unique binders were cloned into the CAR vector (FIG. 7D). The second-generation CAR construct uses a CD8α hinge and transmembrane domain with a CD3ζ signaling and a 4-1BB costimulatory domain. In addition, a hemagglutinin (HA) tag was added between the scFv and hinge domains to allow the simultaneous assessment of antigen binding and surface expression (FIG. 7D).

The target in assay [2] is T1, recombinant CD229. In words: competition SPR on immobilized CD229. The text has this:
FIGS. 5A, 5B, 5C, 5D, and 5E show the binding, cross-reactivity, and selectivity of anti CD229 CAR T cells. (A) Cross-reactivity screening of 2 anti-CD229 antibody clones expressed as scFv-Fc constructs in mammalian cells by TRF assay using recombinant SLAM family members. […] (B) Cytotoxic activity of primary human T cells expressing CAR constructs based on two antibodies or GFP alone against CD229 positive myeloma cell line U266 and healthy autologous T cells as determined by flow cytometry. Anti-CD229 CARs specifically kill myeloma cells but not healthy T cells co-expressing CD229. […] (E) Competition SPR using immobilized CD229 and sequential injections of the primary antibodies followed by individual injection of antibodies to determine their ability to compete for the epitope recognized by the primary antibody. 1D5 and 2D3 occupy the same epitope space while 2A2 binds to a distinct epitope. Due to the lack of self-competition, 2A2 most likely binds to an epitope occurring twice in recombinant CD229, a tandem Ig domain-containing protein.

Assay [3] deals with T2, recombinant CD229 (human, UniProt Q9HBG7 48-454).
T2 chain: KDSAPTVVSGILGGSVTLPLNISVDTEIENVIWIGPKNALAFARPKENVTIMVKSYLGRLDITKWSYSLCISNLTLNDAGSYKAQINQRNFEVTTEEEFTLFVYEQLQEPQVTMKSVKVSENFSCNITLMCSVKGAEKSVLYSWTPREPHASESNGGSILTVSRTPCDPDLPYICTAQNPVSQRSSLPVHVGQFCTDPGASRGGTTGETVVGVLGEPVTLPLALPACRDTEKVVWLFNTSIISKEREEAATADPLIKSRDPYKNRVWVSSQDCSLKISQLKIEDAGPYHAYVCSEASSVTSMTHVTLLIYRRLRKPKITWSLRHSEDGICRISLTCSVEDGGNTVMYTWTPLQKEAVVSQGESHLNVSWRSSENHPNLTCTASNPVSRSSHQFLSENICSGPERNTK
In words: SPR. (In general: In SPR one partner is held on a chip, and binding of the other changes the refractive index at the surface.)

Assay [4] addresses T2, recombinant CD229. The assay is described as follows: SPR.

B1: anti-CD229 CAR construct, Clone 1A9 (other)
chain: QITLKESGPTLVKPTQTLTLTCTFSGFSLSTSGVGVGWIRQPPGKALEWLALIYWNDDKRYSPSLKSRLTIAKDTSKNQVVLTMTNMDPVDTATYYCARMGWNDPHMVDYWGQGTLVTVSSLEGGGGSGGGGSGGGASDIQMTQSPSSLSASVGDRVTITCRASQSIGSSLHWYQQKPGKAPKFLIYDASSLESGVPSRFSGSGSGTEFTLTISSLQPDDFATYYCQQYNSYPLTFGGGTKLEIKR
notes: CAR expressed on cells; not shown: HA tag, CD8alpha hinge and transmembrane domain, 4-1BB co-stimulatory and CD3zeta signaling domains
Consider B1, for which, in assay [1], the binding result is listed as “binds”.

B2: anti-CD229 antibody clone 2A2 expressed as scFv-Fc (Fc fusion)
chain: QMQLVQSGAEVKKPGSSVKVSCKASGGTFSSYAISWVRQAPGQGLEWMGGIIPIFGTANYAQKFQGRVTITADKSTSTAYMELSSLRSDDTAVYYCARDELWATNYYYMDVWGKGTLVTVSSLEGGGGSGGGGSGGGASQSALTQPRSVSGSPGQSVTISCTGTSSDVGSYNYVSWYQQSPGKAPKLMIYDVSNRPSGVSNRFSGSKSGNTASLTISGLQSEDEADYYCTSYGSYDIPVIFGGGTKLTVLG
notes: scFv fused C-terminally to an immunoglobulin Fc domain, expressed in mammalian cells; not shown: immunoglobulin Fc domain
In the case of B2, the binding result in assay [2] is “binds”. The dissociation constant Kd in assay [3] and in assay [4] was 18.4 nM in each case.

B3: anti-CD229 CAR construct, Clone 2A2 (other)
chain: QMQLVQSGAEVKKPGSSVKVSCKASGGTFSSYAISWVRQAPGQGLEWMGGIIPIFGTANYAQKFQGRVTITADKSTSTAYMELSSLRSDDTAVYYCARDELWATNYYYMDVWGKGTLVTVSSLEGGGGSGGGGSGGGASQSALTQPRSVSGSPGQSVTISCTGTSSDVGSYNYVSWYQQSPGKAPKLMIYDVSNRPSGVSNRFSGSKSGNTASLTISGLQSEDEADYYCTSYGSYDIPVIFGGGTKLTVLG
notes: CAR expressed on cells; also called anti-CD229 CAR clone 2A2; not shown: HA tag, CD8alpha hinge and transmembrane domain, 4-1BB co-stimulatory and CD3zeta signaling domains
Consider B3, for which, in assay [1], the binding result is listed as “binds”.
